Patent US20070253950A1 (Pfizer, published 2007)

Target: T1, human RAGE-Fc fusion protein (human, UniProt Q15109 23-344)
T1 construct: amino acids 1-344 of human RAGE appended to the Fc domain of human IgG; also called hRAGE-Fc; huRAGE-Fc
Assay: ligand competition ELISA: HMGB1 coated, hRAGE-Fc pre-mixed with antibody, bound hRAGE-Fc detected with anti-huIgG-HRP; blocked ligand HMGB1
Description: Wells were washed and blocked as described above and exposed to 100 μl of pre-incubated mixtures of RAGE-Fc or TrkB-Fc (a non-specific Fc control), at 0.1 μg/ml, plus various forms of the indicated antibody preparation (dilutions of immune sera, hybridoma supernatants or purified antibodies) for 1 hour at room temperature.

IC50 (read off the curve): ~0.1 µg/mL
B1: XT-H2 (antibody, V domains shown)
VH: QVQLQQSGAELAKPGASVKMSCKASGYTFTTYWMHWVKQRPGQGLYWIGYINPSTGYTEYNQKFKDKATLTADKSSSTAYMQLSSLTSEDSAVYYCARWAGYTIDYWGQGTSVTVSS
VL: DVVLTQTPLSLPVNIGDQASISCKSTKSLLNSDGFTYLDWYLQKPGQSPQLLIYLVSDRFSGVPDRFSGSGSGTDFTLTISRVEAEDLGVYYCFQSNSLPLTFGSGTKLEIK
notes: also called 1hRAGEP3/16
